Substrate in the data set: O=C(O)CCC(=O)C(=O)O
Description: NAD/NADH quantification kit, Lineweaver-Burk. The format is biochemical, Malassezia pachydermatis. As to conditions: without inhibitor; reverse reaction; 2-OG 15-30 mM; NADH. The text has this: NAD/NADH quantification kit, Lineweaver-Burk on MpSDH

The record followed here is article PMC7078309, “New Therapeutic Candidates for the Treatment of Malassezia pachydermatis -Associated Infections” (Scientific Reports, 2020).

B1: MpSDH (Malassezia pachydermatis) (protein)
chain: MTGTQALWLRCETKPAEHRSALTPTTAKKLINAGFDITVERDPNRIFDDEEFEKVGCHMAEYHSWPKAPKTTPIIGLKELDTPGPDLEHTHIQFAHCYKHQEGWVDVLARFKRGGGKLYDLEFLEDANGRRVAAFGWHAGFAGAALGLLALAEQVEGKVLGAQTKYPNEEALMEKTREAVRVIRKHRPDGRVTSLIIGALGRCGRGAIDCLEKSGLQSDEIVRWDIQETSAKSGPYQEIIDSDLFVNCIYLSKKIPPFVNKESLQAVGDKRRLGMIVDVSCDTTNPNNPIPVYSINTTFDKPTVAVDGFDKLEVISIDHLPTLLPREASEAFSNDLLPSLLQLPLVTGVAGEEALQHVNEEGKGAVWTRAEALFRKHLAEAEANGA
notes: synthetic gene, C-terminal 6xHN tag (pET6xHN-C), expressed in E. coli BL21, Ni-IMAC, 43 kDa band on SDS-PAGE
The Km is the substrate concentration at which the rate is half of its maximum. B1: the Km was 0.25 ± 7.1e-02 mM.
